US20240026037A1 (Memorial Sloan Kettering, published 2024)
Substitutions are numbered along the chain they refer to.

Columns and labels:
[1] = target: T1, Human GPA33 on GPA33+ colorectal cancer cell lines (Colo 205, LS 174T, SW 1222) (human, UniProt Q99795 22-319); test: cell binding to LS174T Luc cells; IgG format
T1 construct: Endogenous GPA33 on human colorectal cancer cell lines; also called surface human GPA33; GPA33+ tumor cell lines
T1 sequence: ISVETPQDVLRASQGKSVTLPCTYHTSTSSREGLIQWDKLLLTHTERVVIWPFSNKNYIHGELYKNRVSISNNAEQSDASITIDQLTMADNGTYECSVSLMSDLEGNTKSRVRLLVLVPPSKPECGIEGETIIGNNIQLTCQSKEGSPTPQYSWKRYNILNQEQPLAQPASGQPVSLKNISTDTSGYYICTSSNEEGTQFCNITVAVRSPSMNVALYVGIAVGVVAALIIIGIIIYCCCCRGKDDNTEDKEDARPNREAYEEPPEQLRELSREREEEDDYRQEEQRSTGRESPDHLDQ

[2] = target: T1, Human GPA33 on GPA33+ colorectal cancer …; test: cell binding to SW1222 Luc cells; IgG format
[3] = target: T2, Human GPA33 (recombinant protein, Novoprotein) (human, UniProt Q99795 22-235); test: SPR (Biacore), binding to GPA33 protein; IgG format
T2 construct: Bought recombinant protein immobilized on a CM5 chip; also called GPA33 antigen; tumor antigen GPA33
T2 sequence: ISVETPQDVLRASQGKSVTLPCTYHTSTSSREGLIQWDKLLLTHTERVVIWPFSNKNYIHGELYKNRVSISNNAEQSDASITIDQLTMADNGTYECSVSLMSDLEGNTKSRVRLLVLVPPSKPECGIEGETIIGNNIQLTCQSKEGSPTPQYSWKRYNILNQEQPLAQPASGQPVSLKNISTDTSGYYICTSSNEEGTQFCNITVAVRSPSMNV
Procedure: (§1) SPR analysis. Human GPA33 (Novoprotein, Summit, NJ) was immobilized on CM5 chips. Five concentrations of 2-fold serially diluted huA33 IgG1 or huA33-BsAbs (starting at 20 nM) were flowed over the chip using a Biacore™ T100 system (GE Healthcare, Chicago, IL). Binding kinetics of huA33 were measured at 25° C. and binding kinetics of huA33-BsAbs were measured at both 25° C. and 37° C. The sensorgrams were fitted with two state binding model for both to derive kinetic parameters.

[4] = target: T1, Human GPA33 on GPA33+ colorectal cancer …; test: flow cytometry, LS 174T cells
[5] = target: T1, Human GPA33 on GPA33+ colorectal cancer …; test: flow cytometry, SW 1222 cells
[6] = target: T1, Human GPA33 on GPA33+ colorectal cancer …; test: flow cytometry, Colo 205 cells; Colo 205 cells
[7] = target: T1, Human GPA33 on GPA33+ colorectal cancer …; test: FACS binding to LS174T cells (GPA33+)
[8] = target: T1, Human GPA33 on GPA33+ colorectal cancer …; test: FACS binding to SW1222 cells (GPA33+)
[9] = target: T1, Human GPA33 on GPA33+ colorectal cancer …; test: FACS binding to Colo205 cells (GPA33+)
[10] = target: T2, Human GPA33 (recombinant protein, …); test: SPR (Biacore), human GPA33 immobilized on CM5 chip, two-state fit
Procedure: as §1

[11] = target: T2, Human GPA33 (recombinant protein, …); test: SPR (Biacore), human GPA33 immobilized on CM5 chip, two-state fit, ka1
Procedure: as §1

[12] = target: T2, Human GPA33 (recombinant protein, …); test: SPR (Biacore), human GPA33 immobilized on CM5 chip, two-state fit, kd1
Procedure, shortened: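 Kinetic parameters, including the off-rate (kd1), were obtained by fitting surface plasmon resonance sensorgrams to a two-state binding model. On a Biacore T100 with recombinant human GPA33 immobilised on a CM5 chip, antibodies were passed over at five 2-fold serial dilutions from 20 nM. Runs used 25° C for the parent IgG1, and 25° C and 37° C for the bispecific formats.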

[13] = target: T2, Human GPA33 (recombinant protein, …); test: SPR (Biacore), human GPA33 immobilised on the chip; KD relative to that of TC170
Procedure, shortened: (§2)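 Affinity (KD) was measured by surface plasmon resonance on a Biacore system, with recombinant human GPA33 (Novoprotein) immobilised on a CM5 sensor chip. Antibodies were injected at five concentrations, 2-fold serial dilutions starting at 20 nM. The sensorgrams were fitted kinetically to give rate constants and KD. Each KD is given as a ratio to the KD of a reference molecule.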

[14] = target: T2, Human GPA33 (recombinant protein, …); test: SPR (Biacore), human GPA33 immobilised on the chip; KD relative to that of BC015
Procedure, shortened: as §2

B1: G3A_VK6+VH1 (antibody, V domains shown)
VH: EVQLVESGGGLVKPGGSLRLSCAASGFAFSTYDMSWVRQAPGKGLEWVSTISSGGSYTYYADSVKGRFTISRDNAKNSLYLQMNSLRAEDTAVYYCAPTTVVPFAYWGQGTLVTVSA
VL: DIQMTQSPSSLSASVGDRVTITCKASQNVRTVVAWYQQKPGKAPKRLIYLASNRHTGVPSRFSGSGSGTEFTLTISNLQPEDFATYFCLQHWSYPLTFGSGTKLEVK
Q: How did the EC50 [1] turn out when B1 was run?
A: Its EC50 is 0.402 µg/mL.

Q: What about the EC50 [2] of the same binder?
A: Its EC50 is 0.831 µg/mL.

Q: What about the Kd [3] of the same binder?
A: The Kd was 0.884 nM.

B2: G3A_VK8+VH2 (antibody, V domains shown)
VH: B1 VH with S49A, A61L, N74S
VL: B1 VL with T85D, F87Y
Q: Which results are given for B2?
A: EC50 [1]: 1.09 µg/mL; EC50 [2]: 0.993 µg/mL; Kd [3]: 1.85 nM

B3: G3A_VK7+VH1 (antibody, V domains shown)
VH: B1 VH
VL: B1 VL with L78V, F87Y
Q: How did the EC50 [1] turn out when B3 was run?
A: The EC50 was 0.481 µg/mL.

Q: What about the EC50 [2] of the same binder?
A: Its EC50 is 1.14 µg/mL.

Q: What about the Kd [3] of the same binder?
A: Its Kd is 0.888 nM.

B4: G3A_VK7+VH2 (antibody, V domains shown)
VH: B1 VH with S49A, A61L, N74S
VL: B1 VL with L78V, F87Y
Q: Which EC50 [1] does the source give for B4 here?
A: Its EC50 is 0.576 µg/mL.

Q: What about the EC50 [2] of the same binder?
A: Its EC50 is 0.795 µg/mL.

Q: And the Kd [3]?
A: The Kd was 1.75 nM.

B5: G3A_VK6+VH3 (antibody, V domains shown)
VH: B1 VH with S49A, N74S
VL: B1 VL
Q: Which results are given for B5?
A: EC50 [1]: 0.847 µg/mL; EC50 [2]: 0.614 µg/mL; Kd [3]: 1.45 nM

B6: G3A_VK8+VH1 (antibody, V domains shown)
VH: B1 VH
VL: B1 VL with T85D, F87Y
Q: What does the source list for B6?
A: EC50 [1]: 0.454 µg/mL; EC50 [2]: 0.568 µg/mL; Kd [3]: 0.975 nM

B7: G3A_VK8+VH3 (antibody, V domains shown)
VH: B1 VH with S49A, N74S
VL: B1 VL with T85D, F87Y
Q: For B7, which EC50 [1] is on record?
A: The EC50 was 0.433 µg/mL.

Q: What about the EC50 [2] of the same binder?
A: The EC50 was 0.792 µg/mL.

Q: What about the Kd [3] of the same binder?
A: The Kd was 1.89 nM.

B8: TC160 (bispecific antibody)
chain: DIQMTQSQSSLSTSVGDRVTITCKASQNVRTVVAWYQQKPGKSPKTLIYLASNRHTGVPSRFSGSGSGTEFTLTISNVQPEDFADYFCLQHWSYPLTFGSGTKLEIKRGGGGSGGGGSGGGGSGGGGSGGGGSGGGGSEVQLVESGGGLVKPGGSLRLSCAASGFAFSTYDMSWVRQAPGKRLEWVATISSGGSYTYYLDSVKGRFTISRDNAKNSLYLQMNSLRAEDTAVYYCAPTTVVPFAYWGQGTLVTVSSGGGGSGGGGSGGGGSGGGGSHVQLVESGGGLVQPGGSLRLSCAASGFSLTDYGVHWVRQAPGKGLEWLGVIWSGGGTAYNTALISRFTISRDNSKNTLYLQMNSLRAEDTAVYYCARRGSYPYNYFDAWGCGTLVTVSSGGGGSGGGGSGGGGSGGGGSGGGGSGGGGSQAVVTQEPSLTVSPGGTVTLTCGSSTGAVTASNYANWVQQKPGQCPRGLIGGHNNRPPGVPARFSGSLLGGKAALTLLGAQPEDEAEYYCALWYSDHWVIGGGTKLTVLGTPLGDTTHTSGKPLDGEYFTLQIRGRERFEMFRELNEALELKDAQAGKEPGGSGGAPHHHHHH
notes: Previously described GPA33xDOTA SADA clone, with the other VH/VL orientation than TC159; Carries the p53 SADA (tetramerization) domain
Q: Which results are given for B8?
A: IC50 [4]: 0.56 nM; IC50 [5]: 0.36 nM; EC50 [6]: 1.2 nM; fold change of binding EC50 (relative to TC170, lower is better) [7]: 1.81; fold change of binding EC50 (relative to TC170, lower is better) [8]: 0.22; fold change of binding EC50 (relative to TC170, lower is better) [9]: 1.62; Kd [10]: 0.0518 nM; ka2 [10]: 0.00678 s⁻¹; kd2 [10]: 0.000654 s⁻¹; kon [11]: 3.43e+06 M⁻¹ s⁻¹; koff [12]: 0.00202 s⁻¹; Fold change of KD (relative to TC170, lower is better) [13]: 3.4

B9: BC155 (bispecific antibody, human IgG1, kappa, N297A)
heavy: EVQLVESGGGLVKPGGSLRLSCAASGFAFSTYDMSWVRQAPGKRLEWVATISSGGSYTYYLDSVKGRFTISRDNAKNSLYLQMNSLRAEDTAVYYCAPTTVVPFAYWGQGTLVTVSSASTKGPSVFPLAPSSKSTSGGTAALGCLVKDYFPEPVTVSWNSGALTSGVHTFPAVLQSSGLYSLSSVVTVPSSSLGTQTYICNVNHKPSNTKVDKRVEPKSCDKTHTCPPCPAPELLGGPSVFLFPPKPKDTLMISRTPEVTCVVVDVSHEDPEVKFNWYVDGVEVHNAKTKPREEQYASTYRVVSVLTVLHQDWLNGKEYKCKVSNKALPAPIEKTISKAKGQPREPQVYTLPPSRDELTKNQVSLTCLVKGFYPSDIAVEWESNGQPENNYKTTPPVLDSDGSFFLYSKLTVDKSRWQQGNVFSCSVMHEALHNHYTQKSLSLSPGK
light: DIQMTQSQSSLSTSVGDRVTITCKASQNVRTVVAWYQQKPGKSPKTLIYLASNRHTGVPSRFSGSGSGTEFTLTISNVQPEDFADYFCLQHWSYPLTFGSGTKLEIKRTVAAPSVFIFPPSDEQLKSGTASVVCLLNNFYPREAKVQWKVDNALQSGNSQESVTEQDSKDSTYSLSSTLTLSKADYEKHKVYACEVTHQGLSSPVTKSFNRGECTSGGGGSGGGGSGGGGSHVQLVESGGGLVQPGGSLRLSCAASGFSLTDYGVHWVRQAPGKGLEWLGVIWSGGGTAYNTALISRFTISRDNSKNTLYLQMNSLRAEDTAVYYCARRGSYPYNYFDAWGCGTLVTVSSGGGGSGGGGSGGGGSGGGGSGGGGSGGGGSQAVVTQEPSLTVSPGGTVTLTCGSSTGAVTASNYANWVQQKPGQCPRGLIGGHNNRPPGVPARFSGSLLGGKAALTLLGAQPEDEAEYYCALWYSDHWVIGGGTKLTVLG
notes: Previously described GPA33xDOTA IgG-[L]-scFv clone; The light chain entry carries the anti-DOTA scFv at its C-terminus
Q: For B9, which Kd [10] is on record?
A: The Kd was 0.171 nM.

Q: What about the ka2 [10] of the same binder?
A: The ka2 was 0.00328 s⁻¹.

Q: What about the kd2 [10] of the same binder?
A: Its kd2 is 0.00164 s⁻¹.

Q: And the kon [11]?
A: Its kon is 4.13e+06 M⁻¹ s⁻¹.

Q: And the koff [12]?
A: Its koff is 0.00212 s⁻¹.

Q: What about the “Fold change of KD (relative to BC015, lower is better)” value [14] of the same binder?
A: Its value is 1.45.

B10: BC178 (bispecific antibody)
heavy: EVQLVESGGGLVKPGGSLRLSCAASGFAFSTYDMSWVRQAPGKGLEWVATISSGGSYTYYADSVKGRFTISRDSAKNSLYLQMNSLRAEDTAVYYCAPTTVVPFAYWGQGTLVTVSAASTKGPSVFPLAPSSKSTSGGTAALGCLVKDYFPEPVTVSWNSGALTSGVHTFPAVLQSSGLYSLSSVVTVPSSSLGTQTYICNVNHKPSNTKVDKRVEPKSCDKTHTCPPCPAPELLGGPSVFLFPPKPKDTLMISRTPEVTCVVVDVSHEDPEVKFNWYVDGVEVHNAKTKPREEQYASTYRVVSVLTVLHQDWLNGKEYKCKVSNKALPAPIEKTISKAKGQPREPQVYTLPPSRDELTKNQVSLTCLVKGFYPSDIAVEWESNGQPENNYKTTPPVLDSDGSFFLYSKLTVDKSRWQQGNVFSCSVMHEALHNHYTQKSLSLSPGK
light: B9 light with Q8P, S43A, T56S, V78L, D85T, F87Y, I106V
Q: For B10, which Kd [10] is on record?
A: Its Kd is 0.00792 nM.

Q: And the ka2 [10]?
A: Its ka2 is 0.0541 s⁻¹.

Q: And the kd2 [10]?
A: The kd2 was 0.00504 s⁻¹.

Q: What about the kon [11] of the same binder?
A: The kon was 5.5e+06 M⁻¹ s⁻¹.

Q: What about the koff [12] of the same binder?
A: The koff was 0.000511 s⁻¹.
